From US20230091471A1 (APELLIS PHARMACEUTICALS, published 2023)

B1: CA28-AEEAc-Lys(mPEG40K-carbonyl) (peptide)
peptide: ICVWQDWGAHRCTK
modifications: not fully specified; N-terminal acetyl; 1-methyl-Trp at 4; disulfide Cys2-Cys12; AEEAc after Thr13; Lys15 side chain coupled to linear 40 kD mPEG (NOF SUNBRIGHT ME-400TS); C-terminal amide
B2: CA28-AEEAc-Lys(mPEG40K-succinyl) (peptide)
peptide: ICVWQDWGAHRCTK
modifications: not fully specified; N-terminal acetyl; 1-methyl-Trp at 4; disulfide Cys2-Cys12; AEEAc after Thr13; Lys15 side chain coupled to linear 40 kD mPEG (NOF SUNBRIGHT ME-400CS); C-terminal amide
B3: CA28-2GS-BF (peptide)
peptide: ICVWQDWGAHRCTK
modifications: not fully specified; N-terminal acetyl; 1-methyl-Trp at 4; disulfide Cys2-Cys12; AEEAc after Thr13; Lys side chain coupled to one end of a bifunctional linear 40 kD PEG of the GS type (NHS-OCO(CH2)3COO-PEG-CO(CH2)3COO-NHS); C-terminal …
B4: CA28-AEEAc-Lys-(PEG40k) (peptide)
peptide: ICVWQDWGAHRCTK
modifications: not fully specified; N-terminal acetyl; 1-methyl-Trp at 4; disulfide Cys2-Cys12; AEEAc after Thr13; Lys15 side chain coupled to linear 40 kD mPEG (NOF SUNBRIGHT ME-400GS); C-terminal amide
B5: CA28-AEEAc-Lys(mPEG40K-hexanoyl) (peptide)
peptide: ICVWQDWGAHRCTK
modifications: not fully specified; N-terminal acetyl; 1-methyl-Trp at 4; disulfide Cys2-Cys12; AEEAc after Thr13; Lys15 side chain coupled to linear 40 kD mPEG (NOF SUNBRIGHT ME-400HS); C-terminal amide

Columns and labels:
[1] = molecular target: T1, human complement component C3 (human, UniProt P01024 23-1663); assay: cell-based or functional assay
[2] = molecular target: T1, human complement component C3; assay: cell-based or functional assay; remark: listed apart in the source

Row | Binder | IC50 (read off the curve); classical pathway C3b deposition ELISA, human plasma [1] [nM] | other results
1 | B1 | ~600 | 
2 | B2 | ~600 | 
3 | B3 |  | Q1 (Type III cells with high C3d deposition) % Parent, modified Ham's assay, 50 ug/ml [2]: 0.01%; Q2 (Type I and II cells with high C3d deposition) % Parent, modified Ham's assay, 50 ug/ml [2]: 0.01%; Q3 (Type III cells without significant C3d deposition) % Parent, modified Ham's assay, 50 ug/ml [2]: 61.5%; Q4 (Type I and II cells without significant C3d deposition) % Parent, modified Ham's assay, 50 ug/ml [2]: 38.5%
4 | B4 | ~600 | 
5 | B5 | ~600 | 
